Molecular target: eGFP-DGKζ (fusion of enhanced green fluorescent protein and diacylglycerol kinase ζ) (UniProt Q80UP3 1-929)
Assay: co-IP

eGFP-DGKζ (fusion of enhanced green fluorescent protein and diacylglycerol kinase ζ), sequence (Q80UP3 whole entry, the tested form may be a part): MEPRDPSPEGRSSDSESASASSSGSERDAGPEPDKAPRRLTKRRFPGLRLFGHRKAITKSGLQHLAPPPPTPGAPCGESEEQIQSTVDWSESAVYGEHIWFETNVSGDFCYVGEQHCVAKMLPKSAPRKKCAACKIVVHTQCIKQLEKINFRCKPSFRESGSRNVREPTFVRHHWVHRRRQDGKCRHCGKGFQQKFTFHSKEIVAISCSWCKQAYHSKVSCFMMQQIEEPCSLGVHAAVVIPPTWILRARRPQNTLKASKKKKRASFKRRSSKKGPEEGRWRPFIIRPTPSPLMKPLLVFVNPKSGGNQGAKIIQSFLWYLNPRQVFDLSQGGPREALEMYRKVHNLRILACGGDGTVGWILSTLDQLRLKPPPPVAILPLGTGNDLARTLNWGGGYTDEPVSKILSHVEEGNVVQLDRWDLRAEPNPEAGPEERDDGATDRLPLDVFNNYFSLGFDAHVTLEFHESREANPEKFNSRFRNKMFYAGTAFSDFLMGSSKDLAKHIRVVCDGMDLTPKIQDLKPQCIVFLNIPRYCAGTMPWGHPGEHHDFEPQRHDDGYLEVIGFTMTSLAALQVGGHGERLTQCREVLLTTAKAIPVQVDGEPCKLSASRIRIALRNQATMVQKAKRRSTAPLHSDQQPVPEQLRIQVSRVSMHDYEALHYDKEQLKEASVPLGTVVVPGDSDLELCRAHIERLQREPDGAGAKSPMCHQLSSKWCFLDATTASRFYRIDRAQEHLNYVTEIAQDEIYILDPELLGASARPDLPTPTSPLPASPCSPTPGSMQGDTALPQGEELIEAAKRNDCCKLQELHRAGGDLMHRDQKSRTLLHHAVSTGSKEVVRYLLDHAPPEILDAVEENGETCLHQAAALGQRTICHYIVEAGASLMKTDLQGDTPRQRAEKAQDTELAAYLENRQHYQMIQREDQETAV

fold binding relative to DGKα: ≤ 3 fold
B1: RasGRP1 (Ras guanyl nucleotide-releasing protein 1), from pEF6-huRasGRP1-myc/His wild-type plasmid (natural protein, human, UniProt O95267 1-797, looked up)
chain: MGTLGKAREAPRKPSHGCRAASKARLEAKPANSPFPSHPSLAHITQFRMMVSLGHLAKGASLDDLIDSCIQSFDADGNLCRSNQLLQVMLTMHRIVISSAELLQKVITLYKDALAKNSPGLCLKICYFVRYWITEFWVMFKMDASLTDTMEEFQELVKAKGEELHCRLIDTTQINARDWSRKLTQRIKSNTSKKRKVSLLFDHLEPEELSEHLTYLEFKSFRRISFSDYQNYLVNSCVKENPTMERSIALCNGISQWVQLMVLSRPTPQLRAEVFIKFIQVAQKLHQLQNFNTLMAVIGGLCHSSISRLKETSSHVPHEINKVLGEMTELLSSSRNYDNYRRAYGECTDFKIPILGVHLKDLISLYEAMPDYLEDGKVNVHKLLALYNHISELVQLQEVAPPLEANKDLVHLLTLSLDLYYTEDEIYELSYAREPRNHRAPPLTPSKPPVVVDWASGVSPKPDPKTISKHVQRMVDSVFKNYDHDQDGYISQEEFEKIAASFPFSFCVMDKDREGLISRDEITAYFMRASSIYSKLGLGFPHNFQETTYLKPTFCDNCAGFLWGVIKQGYRCKDCGMNCHKQCKDLVVFECKKRAKNPVAPTENNTSVGPVSNLCSLGAKDLLHAPEEGPFTFPNGEAVEHGEESKDRTIMLMGVSSQKISLRLKRAVAHKATQTESQPWIGSEGPSGPFVLSSPRKTAQDTLYVLPSPTSPCPSPVLVRKRAFVKWENKDSLIKSKEELRHLRLPTYQELEQEINTLKADNDALKIQLKYAQKKIESLQLEKSNHVLAQMEQGDCS
